The supplement of paper PMC7125110
± gives the standard error. Fewer inactive variants are shown than the library holds.

B1: glmS ribozyme (parent)
chain: AUAAAAGCGCCAGAACUACAGAAAUGUAGUUGACGAGGAGGAGGUUUAUCGAAUUUUCGGCGGAUGCCUCCAAA

Key:
Details in all cases: with glucosamine-6-phosphate
[1] = variants of: B1; assay: self-cleavage kobs at 40 uM GlcN6P; higher = faster cleavage; RNA array
Procedure, shortened: (§1)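 kcat and KM were obtained from weighted Michaelis–Menten fits across concentrations of kobs values. Those came from one- or two-exponential decay fits to per-tile medians normalised to baseline and to non-cleaving reference variants. The variants were barcoded ribozymes transcribed in situ by E. coli RNA polymerase on sequenced MiSeq chips and tracked through a hybridised Cy3 probe at 37 °C, with 40 μM to 10 mM glucosamine-6-phosphate in HEPES/KCl/Mg(OAc)2 buffer flowed in.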

[2] = variants of: B1; assay: self-cleavage kobs at 10000 uM GlcN6P; higher = faster cleavage; RNA array
Procedure, shortened: as §1

[3] = variants of: B1; assay: self-cleavage kobs at 160 uM GlcN6P; higher = faster cleavage; RNA array
Procedure, shortened: as §1

[4] = variants of: B1; assay: self-cleavage kobs at 2500 uM GlcN6P; higher = faster cleavage; RNA array
Procedure, shortened: as §1

[5] = variants of: B1; assay: self-cleavage kobs at 640 uM GlcN6P; higher = faster cleavage; RNA array
Procedure, shortened: as §1

AUAAAAGCGCCAGAACUACAGAAAUGUAGUUGACGAUGAGGAGGUCUAUCGAAUUUUCGGCGGAUGCCUCCAAA [G37U U46C]
self-cleavage kobs at 40 uM GlcN6P [1]: < 1e-05 s⁻¹
self-cleavage kobs at 10000 uM GlcN6P [2]: < 1e-05 s⁻¹

AUAAAAGCGCCAGAACUACAGAAAUGUAGUUGACGAUAAGGAGGUUUAUCGAAUUUUCGGCGGAUGCCUCCAAA [G37U G38A]
self-cleavage kobs at 40 uM GlcN6P [1]: < 1e-05 s⁻¹
self-cleavage kobs at 10000 uM GlcN6P [2]: < 1e-05 s⁻¹

AUAAAAGCGCCAGAACUACAGAAAUGUAGUUGACGAUGAGUAGGUUUAUCGAAUUUUCGGCGGAUGCCUCCAAA [G37U G41U]
self-cleavage kobs at 40 uM GlcN6P [1]: < 1e-05 s⁻¹
self-cleavage kobs at 160 uM GlcN6P [3]: < 1e-05 s⁻¹
self-cleavage kobs at 2500 uM GlcN6P [4]: < 1e-05 s⁻¹
self-cleavage kobs at 10000 uM GlcN6P [2]: < 1e-05 s⁻¹

AUAAAAGCGCCAGAACUACAGAAAUGUAGUUGACGAUGAGGUGGUUUAUCGAAUUUUCGGCGGAUGCCUCCAAA [G37U A42U]
self-cleavage kobs at 40 uM GlcN6P [1]: < 1e-05 s⁻¹
self-cleavage kobs at 160 uM GlcN6P [3]: < 1e-05 s⁻¹
self-cleavage kobs at 640 uM GlcN6P [5]: < 1e-05 s⁻¹

AUAAAAGCGCCAGAACUACAGAAAUGUAGUUGACGAUGAGGAGGUUUAUCGAAUUUUCGGCGGAGUCCUCCAAA [G37U U65G G66U]
self-cleavage kobs at 40 uM GlcN6P [1]: < 1e-05 s⁻¹

AUAAAAGCGCCAGAACUACAGAAAUGUAGUUGACGAUGAGGAGGUUUAUCGAAUUUUAGCCGGAUGCCUACAAA [G37U C58A G60C C70A]
self-cleavage kobs at 40 uM GlcN6P [1]: < 1e-05 s⁻¹
self-cleavage kobs at 10000 uM GlcN6P [2]: < 1e-05 s⁻¹

AUAAAAGCGCCAGAACUACAGAAAUGUAGUUGACGAGAGGGAGGUUUAUCGAAUUUUCGGCGGAUGCCUCCAAA [G38A A39G]
self-cleavage kobs at 40 uM GlcN6P [1]: < 1e-05 s⁻¹
self-cleavage kobs at 160 uM GlcN6P [3]: < 1e-05 s⁻¹
self-cleavage kobs at 640 uM GlcN6P [5]: < 1e-05 s⁻¹
self-cleavage kobs at 2500 uM GlcN6P [4]: < 1e-05 s⁻¹

AUAAAAGCGCCAGAACUACAGAAAUGUAGUUGACGAUGAGGAGGUUUAUCCAAUUUUCGGCGGAUGCCUCUAAA [G37U G51C C71U]
self-cleavage kobs at 40 uM GlcN6P [1]: < 1e-05 s⁻¹
self-cleavage kobs at 160 uM GlcN6P [3]: < 1e-05 s⁻¹
self-cleavage kobs at 640 uM GlcN6P [5]: < 1e-05 s⁻¹
self-cleavage kobs at 10000 uM GlcN6P [2]: < 1e-05 s⁻¹

AUAAAAGCGCCAGAACUACAGAAAUGUAGUUGACGAUGAGGAGGUUAAUCGAAUUUUCGGCGGAUGCGUCCAAA [G37U U47A C68G]
self-cleavage kobs at 40 uM GlcN6P [1]: < 1e-05 s⁻¹
self-cleavage kobs at 2500 uM GlcN6P [4]: 9e-05 ± 3.5e-05 s⁻¹
self-cleavage kobs at 10000 uM GlcN6P [2]: < 1e-05 s⁻¹

AUAAAAGCGCCAGAACUACAGAAAUGUAGUUGACGAUGAGGAGGUUUAUCGUAUUCUCGGCGGAUGCCUCCAAA [G37U A52U U56C]
self-cleavage kobs at 40 uM GlcN6P [1]: < 1e-05 s⁻¹
self-cleavage kobs at 640 uM GlcN6P [5]: < 1e-05 s⁻¹
self-cleavage kobs at 2500 uM GlcN6P [4]: < 1e-05 s⁻¹

AUAAAAGCGCCAGAACUACAGAAAUGUAGUUGACGACGAGGAGGUGUAUCGAAUUUUCGGCGGAUGCCUCCAAA [G37C U46G]
self-cleavage kobs at 40 uM GlcN6P [1]: < 1e-05 s⁻¹
self-cleavage kobs at 160 uM GlcN6P [3]: < 1e-05 s⁻¹
self-cleavage kobs at 640 uM GlcN6P [5]: < 1e-05 s⁻¹

AUAAAAGCGCCAGAACUACAGAAAUGUAGUUGACGAUGAGGAGGUUUAUCGAAUUUUCGGCGGAUACCUCCAAA [G37U G66A]
self-cleavage kobs at 40 uM GlcN6P [1]: < 1e-05 s⁻¹
self-cleavage kobs at 640 uM GlcN6P [5]: < 1e-05 s⁻¹

AUAAAAGCGCCAGAACUACAGAAAUGUAGUUGACGAUGAGGAGGUUUAUCGAAUUUUCGGCGGAUGCAUCCAAA [G37U C68A]
self-cleavage kobs at 40 uM GlcN6P [1]: < 1e-05 s⁻¹
self-cleavage kobs at 10000 uM GlcN6P [2]: < 1e-05 s⁻¹

AUAAAAGCGCCAGAACUACAGAAAUGUAGUUGACGAUGAUGAGGUGUAUCGAACUUUCGGCGGAUGCCUCCAAA [G37U G40U U46G U54C]
self-cleavage kobs at 40 uM GlcN6P [1]: < 1e-05 s⁻¹
self-cleavage kobs at 160 uM GlcN6P [3]: < 1e-05 s⁻¹
self-cleavage kobs at 640 uM GlcN6P [5]: < 1e-05 s⁻¹
self-cleavage kobs at 2500 uM GlcN6P [4]: < 1e-05 s⁻¹
self-cleavage kobs at 10000 uM GlcN6P [2]: < 1e-05 s⁻¹

AUAAAAGCGCCAGAACUACAGAAAUGUAGUUGACGAUGAGGACGUUUAUCGAAUUUUCGGCGGACGCCUCCAAA [G37U G43C U65C]
self-cleavage kobs at 40 uM GlcN6P [1]: < 1e-05 s⁻¹
self-cleavage kobs at 640 uM GlcN6P [5]: < 1e-05 s⁻¹
self-cleavage kobs at 10000 uM GlcN6P [2]: < 1e-05 s⁻¹

AUAAAAGCGCCAGAACUACAGAAAUGUAGUUGACGAUGGGGUGGUUUAUCGAAUUUUCGGCGGAUGCCUUCAAA [G37U A39G A42U C70U]
self-cleavage kobs at 40 uM GlcN6P [1]: < 1e-05 s⁻¹

AUAAAAGCGCCAGAACUACAGAAAUGUAGUUGACGAUGAGGAGGUUUAUCGAAUUUUCGGCAGAUGCCUCCAAA [G37U G62A]
self-cleavage kobs at 40 uM GlcN6P [1]: < 1e-05 s⁻¹
self-cleavage kobs at 160 uM GlcN6P [3]: < 1e-05 s⁻¹

AUAAAAGCGCCAGAACUACAGAAAUGUAGUUGACGAUGAGUAGGUUUAUCGAAUUUUCGGCGGACGCCUCCAAA [G37U G41U U65C]
self-cleavage kobs at 40 uM GlcN6P [1]: < 1e-05 s⁻¹

AUAAAAGCGCCAGAACUACAGAAAUGUAGUUGACGAUGAGGAGGUUUAUCGAAGUUUCGGCGGUUGCCUCCAAA [G37U U54G A64U]
self-cleavage kobs at 40 uM GlcN6P [1]: < 1e-05 s⁻¹
self-cleavage kobs at 10000 uM GlcN6P [2]: < 1e-05 s⁻¹

AUAAAAGCGCCAGAACUACAGAAAUGUAGUUGACGAUGAGGAGGUUUAUCGAAUUUUCGGCGAAUGCCUCCAAA [G37U G63A]
self-cleavage kobs at 40 uM GlcN6P [1]: < 1e-05 s⁻¹
self-cleavage kobs at 160 uM GlcN6P [3]: < 1e-05 s⁻¹
self-cleavage kobs at 640 uM GlcN6P [5]: < 1e-05 s⁻¹
self-cleavage kobs at 2500 uM GlcN6P [4]: < 1e-05 s⁻¹
self-cleavage kobs at 10000 uM GlcN6P [2]: < 1e-05 s⁻¹

AUAAAAGCGCCAGAACUACAGAAAUGUAGUUGACGAUGAGUAGGUUUAUCGAAUUAUCGGCAUAUGCCUCCAAA [G37U G41U U56A G62A G63U]
self-cleavage kobs at 40 uM GlcN6P [1]: < 1e-05 s⁻¹

AUAAAAGCGCCAGAACUACAGAAAUGUAGUUGACGAUGAGGAGCUUUAUCGAAUUUUCGGCGGAUGCCUCCAAA [G37U G44C]
self-cleavage kobs at 40 uM GlcN6P [1]: < 1e-05 s⁻¹
self-cleavage kobs at 160 uM GlcN6P [3]: < 1e-05 s⁻¹
self-cleavage kobs at 640 uM GlcN6P [5]: < 1e-05 s⁻¹

AUAAAAGCGCCAGAACUACAGAAAUGUAGUUGACGACGAGGAGGUGUUUCGAAUUUUCGGCGGAUGCCUCCAAA [G37C U46G A48U]
self-cleavage kobs at 40 uM GlcN6P [1]: < 1e-05 s⁻¹
self-cleavage kobs at 10000 uM GlcN6P [2]: < 1e-05 s⁻¹

AUAAAAGCGCCAGAACUACAGAAAUGUAGUUGACGAUGAUGAGGUUUAUCGAAUUUUCGGCGGAUGCCUCCAAA [G37U G40U]
self-cleavage kobs at 40 uM GlcN6P [1]: < 1e-05 s⁻¹
self-cleavage kobs at 160 uM GlcN6P [3]: < 1e-05 s⁻¹
self-cleavage kobs at 640 uM GlcN6P [5]: < 1e-05 s⁻¹
self-cleavage kobs at 2500 uM GlcN6P [4]: < 1e-05 s⁻¹
self-cleavage kobs at 10000 uM GlcN6P [2]: < 1e-05 s⁻¹

AUAAAAGCGCCAGAACUACAGAAAUGUAGUUGACGAUGACGAGGUUUAUCGAAUUUUCGGCGGAUGCCUCCAAA [G37U G40C]
self-cleavage kobs at 40 uM GlcN6P [1]: < 1e-05 s⁻¹
self-cleavage kobs at 160 uM GlcN6P [3]: < 1e-05 s⁻¹
self-cleavage kobs at 640 uM GlcN6P [5]: < 1e-05 s⁻¹
self-cleavage kobs at 2500 uM GlcN6P [4]: < 1e-05 s⁻¹
self-cleavage kobs at 10000 uM GlcN6P [2]: < 1e-05 s⁻¹

AUAAAAGCGCCAGAACUACAGAAAUGUAGUUGACGAUGGGGAGGUUUAUCGAAUUUUCGGCAGAUGCAUCCAAA [G37U A39G G62A C68A]
self-cleavage kobs at 40 uM GlcN6P [1]: < 1e-05 s⁻¹
self-cleavage kobs at 10000 uM GlcN6P [2]: < 1e-05 s⁻¹

AUAAAAGCGCCAGAACUACAGAAAUGUAGUUGACGACGAGGAGGUUUAUCGAAUUCUCGGCGGAUGCCUCCAAA [G37C U56C]
self-cleavage kobs at 40 uM GlcN6P [1]: < 1e-05 s⁻¹
self-cleavage kobs at 10000 uM GlcN6P [2]: < 1e-05 s⁻¹
